# Measured values as given in patent publication US20100041873A1 (ZymoGenetics, published 2010).
# Substitutions are numbered along the chain they refer to. “And” between values parts separate entries of the source, which are not always exact repeats. Equal entries are not always repeated. No end group written: not given here.
# T1: Recombinant human IL-7 (human, UniProt P13232 26-177)
# T1 construct: also called Hu IL-7
# T1 sequence (looked up): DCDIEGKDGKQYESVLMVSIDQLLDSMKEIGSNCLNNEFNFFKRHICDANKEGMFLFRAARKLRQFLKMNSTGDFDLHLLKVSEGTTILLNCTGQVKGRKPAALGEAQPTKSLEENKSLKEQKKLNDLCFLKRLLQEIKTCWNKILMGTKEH
# T2: Recombinant human IL-4 (human, UniProt P05112 25-153)
# T2 construct: also called Hu IL-4
# T2 sequence (looked up): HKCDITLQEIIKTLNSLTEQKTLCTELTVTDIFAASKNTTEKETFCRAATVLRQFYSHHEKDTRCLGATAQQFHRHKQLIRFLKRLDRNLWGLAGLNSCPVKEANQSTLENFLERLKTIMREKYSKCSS
# T3: Human IL-21 peptide #3 (N97-C122) (human)
# T3 peptide: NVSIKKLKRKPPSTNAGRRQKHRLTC
# T4: Human IL-21 peptide #2 (N54-C71) (human)
# T4 peptide: NDLVPEFLPAPEDVETNC
# T5: Human IL-21 peptide #1 (pyr30-K50) (human, N-terminal pyroGlu)
# T5 construct: coated on ELISA plates; also called Peptide 1 N-Term
# T5 peptide: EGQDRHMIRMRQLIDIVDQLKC
# T6: Hu IL-21 Peptide A1751 (conjugated to ovalbumin) (human, conjugated to ovalbumin)
# T6 construct: also called peptide #3 N97-C122 conjugated to ovalbumin
# T6 peptide: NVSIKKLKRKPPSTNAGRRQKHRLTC
# T7: Hu IL-21 Peptide A1750 (conjugated to ovalbumin) (human, also: chemically conjugated to ovalbumin)
# T7 construct: also called peptide #2 N54-C71 conjugated to ovalbumin
# T7 peptide: NDLVPEFLPAPEDVETNC
# B1: Human anti-human IL-21 monoclonal antibody 366.328.10 (antibody, V domains shown)
# VH: EVQLVESGGGLVKPGGSLRLSCAASGFIFSSYSMNWVRQAPGKGLEWVSSITSGSYYIHYADSVKGRFTISRDNAKNSLYLQMNSLRAEDTAVYYCVRERGWGYYGMDVWGQGTTVTVSS
# VL: AIQLTQSPSSLSASVGDRVTITCRASQDIDSALAWYQQKPGKAPKILIHDASSLESGVPSRFSGSGSGTDFTLTISSLQPEDFATYYCQQFNSYPYTFGQGTKLEIK
# notes: Hybridoma antibody, ATCC PTA-8789; isotype printed as IgG
# B2: Human anti-human IL-21 monoclonal antibody 366.552.11 (antibody, V domains shown)
# VH: QVQLQESGPGLVKPSETLSLTCTVSGGSISSDFWGWIRQPPGKGLEWIGYISSRGSTNYNPSLKRRVTISVDTSRNQFSLKLSSVTAADTAVYYCARSAGVTDFDFWGQGTLVTVSS
# VL: DIQMTQSPSSVSASVGDRVTITCRASQGISSWLAWYQHKPGKAPKLLIYVASSLQSGVPSRFSGSGSGTDFTLTISSLQPEDFATYYCQQANSFPLTFGGGTKVEIK
# notes: Hybridoma antibody, ATCC PTA-8787; isotype printed as IgG; also called 366.552.11.31
# B3: Heterodimeric IL-21 soluble receptor (IL-21R/γc-Fc) (Fc fusion, not shown: a dimerising Fc or GST)
# chain 1: not shown
# chain 2: LNTTILTPNGNEDTTADFFLTTMPTDSLSVSTLPLPEVQCFVFNVEYMNCTWNSSSEPQPTNLTLHYWYKNSDNDKVQKCSHYLFSEEITSGCQLQKKEIHLYQTFVVQLQDPREPRRQATQMLKLQNLVIPWAPENLTLHKLSESQLELNWNNRFLNHCLEHLVQYRTDWDHSWTEQSVDYRHKFSLPSVDGQKRYTFRVRSRFNPLCGSAQHWSEWSHPIHWGSNTSKENPFLFALEA
# B4: Human anti-human IL-21 monoclonal antibody 362.78.1.44 (antibody, V domains shown)
# VH: QVQLVESGGGVVQPGRSLRLSCAASGFTFSSYGMHWVRQAPGKGLEWVAFIWYDGSDKYYADSVKGRFTISRDNSKNTLYLQMNSLRAEDTAVYYCARDGDSSDWYGDYYFGMDVWGQGTTVTVSS
# VL: not shown
# notes: Hybridoma antibody, ATCC PTA-8790; also called clone 78
# B5: Human anti-human IL-21 monoclonal antibody 362.597.3 (antibody, V domains shown)
# VH: B4 VH with S31T
# VL: not shown
# notes: Hybridoma antibody, ATCC PTA-8786; isotype printed as IgG; also called 362.597.3.15
# B6: Human anti-human IL-21 monoclonal antibody 362.75.1.1 (antibody, V domains shown)
# VH: QLQLQESGPGLVKPSETLSLTCTVSGGSISSRTYRWGWIRQPPGKELEWIGSIYYRGSTFYNPSLKSRVTVSVDTSKNQFSLKLSSVTAADTAVYYCARQSGYSGYDWFDPWGQGTLVTVSS
# VL: EIVLTQSPATLSLSPGERATLSCRASQSVSSFLAWYQQKPGQAPRLLIYDASNRATGIPARFSGSGSGTDFTLTISSLEPEDFAVYYCQQRSNWITFGQGTRLEIK
# notes: Hybridoma antibody, ATCC PTA-8791; isotype printed only as IgG
# Tests used:
# Recombinant human IL-9 = target: T8, Recombinant human IL-9 (human, UniProt P15248 19-144); assay: Western blot
# T8 construct: also called Hu IL-9
# Recombinant human IL-7 = target: T1, Recombinant human IL-7; assay: Western blot
# Recombinant human IL-2 = target: T9, Recombinant human IL-2 (human, UniProt P60568 21-153); assay: Western blot
# T9 construct: also called Hu IL-2
# Recombinant human IL-15 = target: T10, Recombinant human IL-15 (human, UniProt P40933 49-162); assay: Western blot
# T10 construct: also called Hu IL-15
# Recombinant human IL-4 = target: T2, Recombinant human IL-4; assay: Western blot
# [1] = target: T3, Human IL-21 peptide #3 (N97-C122); assay: direct ELISA
# Description: (§1) Wells were blocked with 200 μL/well of Blocking Buffer (PBS-Tween plus 1% w/v bovine serum albumin (BSA)) for 1 hour, after which the plates were washed twice with Wash Buffer. Antibody dilutions were prepared in 5% fetal bovine serum (FBS)/Iscove's Modified Dulbecco's Media (IMDM) medium and adjusted to 1 μg/ml. […] Following 1 hour incubation at ambient temperature, the wells were aspirated and the plates washed twice as described above. Horseradish peroxidase (HRP) labeled Goat anti Mouse IgG, Fc specific or Goat anti Rat IgG, Fc specific, or Goat anti Human IgG, Fc specific (Jackson ImmunoResearch Laboratories, West Grove, Pa.) at a dilution of 1:5000 with 5% FBS/IMDM medium was then added to each well, 100 μL/well, and the plates incubated at ambient temperature for 1 hour. After removal of unbound HRP conjugated antibody, the plates were washed five times, 100 μL /well of tetra methyl benzidine (TMB) (BioFX Laboratories, Owings Mills, Md.) added to each well and the plates incubated for 3 minutes at ambient temperature. Color development was stopped by the addition of 100 μL /well of 450 nm TMB Stop Reagent (BioFX Laboratories, Owings Mills, Md.) and the absorbance values of the wells read on a Molecular Devices Spectra MAX 340 instrument at 450 nm.
# [2] = target: T4, Human IL-21 peptide #2 (N54-C71); assay: direct ELISA
# Description: as §1
# [3] = target: T11, Recombinant mutant human IL-21 (human, UniProt Q9HBE4 30-162, limits assumed); assay: direct ELISA
# T11 construct: also called IL-21 mutant; mutant human IL-21 protein
# Description: as §1
# [4] = target: T5, Human IL-21 peptide #1 (pyr30-K50); assay: direct ELISA
# Description: as §1
# [5] = target: T12, Human IL-21 peptide #4 (C125-S153) (human); assay: direct ELISA
# T12 construct: also called Peptide 4 C-Term
# Description: as §1
# Recombinant human IL-21 [6] = target: T13, Recombinant human IL-21 (human, UniProt Q9HBE4 30-162); assay: cell-based or functional assay
# Recombinant human IL-21 [7] = target: T13, Recombinant human IL-21; assay: cell-based or functional assay; remark: listed apart in the source
# Recombinant human IL-21 [8] = target: T13, Recombinant human IL-21; assay: cell-based or functional assay; remark: listed apart in the source
# [9] = target: T14, Hu IL-21 Peptide A1752 (conjugated to ovalbumin) (human, conjugated to ovalbumin); assay: Western blot
# T14 construct: also called peptide #4 C125-S153 conjugated to ovalbumin
# Description: (§2) For Western blots, the non-specific sites on the membranes were blocked with a buffer containing 20 mM Tris, pH 7.4, 0.5 mM EDTA, 0.5% IGEPAL CA-630, 150 mM NaCl, 0.25% gelatin, and 1% casein hydrolysate blocking solution (Western Blocking Reagent, Roche Diagnostics, Inc., Basel Switerzerland) (Blocking Buffer). The membranes were then incubated for 2 hrs at room temperature with purified monoclonal antibody (10 ng/ml or 100 ng/ml) in the Blocking Buffer followed by a 2 hr incubation with peroxidase conjugated donkey anti-human IgG (Jackson Laboratories, Bar Harbor, Me.). The membranes were washed 5 times with the Tris/EDTA/IGEPAL/NaCl/gelatin Blocking buffer which lacked the casein hydrolysate and developed with SUPERSIGNAL™ DuraWest Luminol/Enhancer/Peroxidase Solution (Pierce, Rockford, Ill.) for chemoluminescence detection. The blots were visualized using X-ray film based standard methods.
# [10] = target: T6, Hu IL-21 Peptide A1751 (conjugated to …); assay: Western blot
# Description: as §2
# [11] = target: T7, Hu IL-21 Peptide A1750 (conjugated to …); assay: Western blot
# Description: as §2
# Recombinant murine IL-21 [12] = target: T15, Recombinant murine IL-21 (mouse, UniProt Q9ES17 18-146); assay: Western blot
# Description: as §2
# [13] = target: T16, Recombinant cynomolgus IL-21 (cynomolgus monkey, UniProt Q9HBE4 30-162 (human entry), limits assumed); assay: cell-based or functional assay
# Recombinant human IL-21 [14] = target: T13, Recombinant human IL-21; assay: cell-based or functional assay; remark: listed apart in the source
# Recombinant murine IL-21 [15] = target: T15, Recombinant murine IL-21; assay: cell-based or functional assay
# Recombinant rat IL-21 = Recombinant rat IL-21 (rat, UniProt A3QPB9 18-146, limits assumed); assay: cell-based or functional assay
# [16] = target: T16, Recombinant cynomolgus IL-21; assay: Western blot
# Description: as §2
# T16 sequence (Q9HBE4 other isoform, or with tags, fused parts or gaps limits assumed): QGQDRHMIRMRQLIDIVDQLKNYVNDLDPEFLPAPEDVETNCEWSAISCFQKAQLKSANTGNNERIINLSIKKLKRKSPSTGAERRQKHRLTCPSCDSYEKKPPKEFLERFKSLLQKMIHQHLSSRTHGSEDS
# T14 sequence (peptide, as listed by the source): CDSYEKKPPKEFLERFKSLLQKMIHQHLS
# T10 sequence (P40933 49-162 limits assumed): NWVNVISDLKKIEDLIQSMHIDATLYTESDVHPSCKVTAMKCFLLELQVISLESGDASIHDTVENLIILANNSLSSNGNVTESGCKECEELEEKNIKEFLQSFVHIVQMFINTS
# T13 sequence (Q9HBE4 30-162 limits assumed): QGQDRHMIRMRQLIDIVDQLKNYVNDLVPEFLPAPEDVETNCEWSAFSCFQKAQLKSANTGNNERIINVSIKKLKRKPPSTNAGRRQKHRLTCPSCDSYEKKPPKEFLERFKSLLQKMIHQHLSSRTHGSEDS
# T8 sequence (P15248 19-144 limits assumed): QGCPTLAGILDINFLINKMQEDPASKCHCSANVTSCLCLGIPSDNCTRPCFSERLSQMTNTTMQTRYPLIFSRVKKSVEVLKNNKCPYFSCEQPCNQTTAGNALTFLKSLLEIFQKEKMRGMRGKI
# T11 sequence (Q9HBE4 other isoform, or with tags, fused parts or gaps mutant limits assumed): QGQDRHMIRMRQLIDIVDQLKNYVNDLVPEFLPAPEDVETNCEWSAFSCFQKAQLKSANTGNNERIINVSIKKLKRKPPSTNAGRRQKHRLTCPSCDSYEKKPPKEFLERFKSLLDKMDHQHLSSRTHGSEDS
# T9 sequence (P60568 21-153 limits assumed): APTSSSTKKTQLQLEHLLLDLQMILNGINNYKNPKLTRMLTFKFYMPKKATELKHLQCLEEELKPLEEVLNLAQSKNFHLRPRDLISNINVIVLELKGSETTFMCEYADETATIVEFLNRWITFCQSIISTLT
# Recombinant rat IL-21, sequence (A3QPB9 18-146 limits assumed): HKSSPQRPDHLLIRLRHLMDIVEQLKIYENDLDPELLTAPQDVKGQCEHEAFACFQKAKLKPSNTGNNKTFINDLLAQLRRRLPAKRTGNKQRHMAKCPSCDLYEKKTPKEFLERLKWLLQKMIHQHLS
Binder,binding result (Recombinant human IL-9),binding result (Recombinant human IL-7),binding result (Recombinant human IL-2),binding result (Recombinant human IL-15),binding result (Recombinant human IL-4),binding result [1],binding result [2],binding result [3],binding result [4],binding result [5],"IC50 (nM), B cell proliferation assay (anti-CD40 + 3.21 nM IL-21) (Recombinant human IL-21 [6]) [nM]","IC50 (pM), STAT3-phosphorylation assay, Expt #1 (Recombinant human IL-21 [7]) [pM]","% IgD-low, CD138+ Plasma Cells, antagonist:ligand 0.16:1 (Recombinant human IL-21 [8]) [%]","% IgD-low, CD138+ Plasma Cells, antagonist:ligand 0.6:1 (Recombinant human IL-21 [8]) [%]","% IgD-low, CD138+ Plasma Cells, antagonist:ligand 2.5:1 (Recombinant human IL-21 [8]) [%]","% IgD-low, CD138+ Plasma Cells, antagonist:ligand 10:1 (Recombinant human IL-21 [8]) [%]",binding result [9],binding result [10],binding result [11],"Cyno IL-21 IC50 ([cIL-21] = 100 pM), STAT-Luciferase assay [13]",also measured
B1,no binding,no binding,no binding,no binding,no binding,no binding (tested: 1 ug/ml mAb),no binding (tested: 1 ug/ml mAb),binds,no binding (tested: 1 ug/ml mAb),no binding (tested: 1 ug/ml mAb),0.71,210,52.1,41.4,20.2,15.4,no binding (tested: 10 or 100 ng/ml mAb),no binding (tested: 10 or 100 ng/ml mAb),no binding (tested: 10 or 100 ng/ml mAb),15 ng/mL and 100 pM,binding result (Recombinant murine IL-21 [12]): no binding (tested: 10 or 100 ng/ml mAb)
B2,no binding,no binding,no binding,no binding,no binding,no binding (tested: 1 ug/ml mAb),no binding (tested: 1 ug/ml mAb),no binding (tested: 1 ug/ml mAb),no binding (tested: 1 ug/ml mAb),,4.75,59,,,,,,no binding (tested: 10 or 100 ng/ml mAb),no binding (tested: 10 or 100 ng/ml mAb),23 ng/mL and 156 pM,"IC50 (pM), 24 hr STAT-Luciferase assay, Expt #1 (Recombinant human IL-21 [14]): 2400 pM"
B3,,,,,,,,,,,3.5,25,66.7,54.2,41.7,23.4,,,,20 ng/mL and 385 pM,"IC50 (pM), 24 hr STAT-Luciferase assay, Expt #2 (Recombinant human IL-21 [14]): 1830 pM; IC50 (pM), STAT3-phosphorylation assay, Expt #2 (Recombinant human IL-21 [7]): 102 pM; IC50 (pM), STAT3-phosphorylation assay, Expt #3 (96 pM IL-21) (Recombinant human IL-21 [7]): 140 pM; Murine IL-21 IC50 ([mIL-21] = […] nM), STAT-Luciferase assay (Recombinant murine IL-21 [15]): 426 ng/mL and 8.06 nM; Rat IL-21 IC50 ([rIL-21] = 1.08 nM), STAT-Luciferase assay (Recombinant rat IL-21): 708 ng/mL and 13.4 nM"
B4,,,,,,,no binding (tested: 1 ug/ml mAb),,no binding (tested: 1 ug/ml mAb),,,,42.8,34.1,15.5,13.7,no binding (tested: 10 or 100 ng/ml mAb),,no binding (tested: 10 or 100 ng/ml mAb),,
B5,,,,,,,no binding (tested: 1 ug/ml mAb),,no binding (tested: 1 ug/ml mAb),,,,,,,,,,no binding (tested: 10 or 100 ng/ml mAb),,
B6,no binding,no binding,no binding,no binding,no binding,no binding (tested: 1 ug/ml mAb),no binding (tested: 1 ug/ml mAb),no binding (tested: 1 ug/ml mAb),no binding (tested: 1 ug/ml mAb),binds,,,,,,,binds,no binding (tested: 10 or 100 ng/ml mAb),no binding (tested: 10 or 100 ng/ml mAb),,binding result [16]: binds
